According to article PMC2361298, “Securin (hPTTG1) expression is regulated by β-catenin/TCF in human colorectal carcinoma”:

Target: GST-TCF-4 DBD (UniProt Q9NQB0 265-496)
Assay: EMSA; EMSA, 0.5 ug GST-TCF-4 DBD or GST; buffer, salt, pH and temperature not stated (as in Hlubek et al 2004)
Conditions: protein: recombinant; tags: GST; label: end label (probe); blunt

Sequence of GST-TCF-4 DBD (Q9NQB0 265-496): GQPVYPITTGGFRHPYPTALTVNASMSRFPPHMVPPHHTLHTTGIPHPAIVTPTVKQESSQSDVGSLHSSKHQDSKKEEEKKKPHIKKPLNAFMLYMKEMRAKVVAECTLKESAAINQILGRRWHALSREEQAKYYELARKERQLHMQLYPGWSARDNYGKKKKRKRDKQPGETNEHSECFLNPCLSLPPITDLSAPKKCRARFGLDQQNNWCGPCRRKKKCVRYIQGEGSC

B1: securin-TBE (wt) (dsDNA)
DNA 1: ATAAATCACTATCAAAGGATAGAATTT
DNA 2: AAATTCTATCCTTTGATAGTGATTTAT
  binding result: binds

B2: securin-mutTBE (mt) (dsDNA)
DNA 1: ATAAATCACTGCCAAAGGATAGAATTT
DNA 2: AAATTCTATCCTTTGGCAGTGATTTAT
  binding result: no binding
